# Measurements from patent US20070041944A1, “Treating tumors by ENH dislocation of ID proteins” (THE TRUSTEES OF COLUMBIA UNIVERSITY IN THE CITY OF NEW YORK, priority 2005, published 2007).
# T1: Id2 (Homo sapiens, UniProt Q02363)
# T1 construct: expressed in transfected cells; host or cells: Cos-1
# T1 sequence (Q02363 1-134): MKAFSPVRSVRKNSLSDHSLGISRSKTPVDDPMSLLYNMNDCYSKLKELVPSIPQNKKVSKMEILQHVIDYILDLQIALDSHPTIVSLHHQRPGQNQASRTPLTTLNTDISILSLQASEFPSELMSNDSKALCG
# T2: GST-Id1 (Homo sapiens, UniProt P41134)
# T2 construct: made in house; host or cells: E. coli BL21 Star (Invitrogen)
# T2 sequence (P41134 1-155): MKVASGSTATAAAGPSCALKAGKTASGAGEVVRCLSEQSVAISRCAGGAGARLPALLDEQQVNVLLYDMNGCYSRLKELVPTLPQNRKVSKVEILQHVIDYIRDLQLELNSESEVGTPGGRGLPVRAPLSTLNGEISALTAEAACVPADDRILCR
# B1: ENH: actin cytoskeleton-associated PDZ-LIM protein ENH (Enigma Homologue), full-length, SEQ ID NO:4; also used Flag-tagged (protein, listed as Homo sapiens)
# chain: MSNYSVSLVGPAPWGFRLQGGKDFNMPLTISSLKDGGKAAQANVRIGDVVLSIDGINAQGMTHLEAQNKIKGCTGSLNMTLQRASAAPKPEPVPVQKGEPKEVVKPVPITSPAVSKVTSTNNMAYNKAPRPFGSVSSPKVTSIPSPSSAFTPAHATTSSHASPSPVAAVTPPLFAASGLHANANLSADQSPSALSAGKTAVNVPRQPTVTSVCSETSQELAEGQRRGSQGDSKQQNGPPRKHIVERYTEFYHVPTHSDASKKRLIEDTEDWRPRTGTTQSRSFRILAQITGTEHLKESEADNTKKANNSQEPSPQLASSVASTRSMPESLDSPTSGRPGVTSLTTAAAFKPVGSTGVIKSPSWQRPNQGVPSTGRISNSATYSGSVAPANSALGQTQPSDQDTLVQRAEHIPAGKRTPMCAHCNQVIRGPFLVALGKSWHPEEFNCAHCKNTMAYIGFVEEKGALYCELCYEKFFAPECGRCQRKILGEVINALKQTWHVSCFVCVACGKPIRNNVFHLEDGEPYCETDYYALFGTICHGCEFPIEAGDMFLEALGYTWHDTCFVCSVCCESLEGQTFFSKKDKPLCKKHAHSVNF
# Assays:
# [1] = system: endogenous Id2 in SK-N-SH cells; test: Subcellular localization of endogenous Id2 after ectopic Flag-ENH (immunofluorescence); format: cell-based, human; conditions: SK-N-SH transiently transfected with Flag-ENH (FIG. 4B)
# Method: Quantitative Analysis of Subcellular Localization of Id2 and siRNA Experiments: SK-N-SH-Flag-Id2 cells untreated or treated with RA for 48 h were fixed in 4% paraformaldehyde. Flag-Id2 and endogenous ENH were immunostained by using Flag-M2 (Sigma) and ENH antibodies, respectively. SK-N-SH cells were transfected with vector or p3XFlag-ENH and immunostained by using Flag-M2 and Id2 (Zymed) antibodies. For silencing of ENH, ENH siRNA (siGenome Smartpool reagent M-006930-00) and control, nontargeting (siGenome Smartpool reagent D-001206-13) siRNA mixtures were purchased from Dharmacon. SK-N-SH cells stably expressing Flag-Id2 were treated with vehicle control or RA for 48 h and transfected with 60 nM siRNAs by using Lipofectamine 2000 (Invitrogen). Thirty-six hours after transfection cells were fixed in 4% paraformaldehyde and immunostained by using Flag-M2 antibodies. Parallel cultures were analyzed by Western blot. Secondary antibodies were FITC- or Cy3-conjugated anti-rabbit and Cy3-conjugated anti-mouse (Jackson ImmunoResearch). Nuclei were counterstained with DAPI. Slides were mounted in 90% glycerol in PBS and analyzed on an Olympus epifluorescence microscope. The percentage of cells displaying Id2 staining in the nucleus was scored by counting at least 500 cells from triplicate samples. […]
# Id2 = target: T1, Id2; test: Coimmunoprecipitation of Id2 and Flag-tagged ENH in transfected Cos-1 cells; format: binding; conditions: Cos-1 cells transfected with Id2 and Flag-tagged ENH
# Method: (§1) GST Pull-Down Assay, Western Blot, and Coimmunoprecipitation: GST fusion proteins were purified from BL21 Star (Invitrogen). GST pull-down assay was performed as described in lavarone, A. et al., (1994), Genes Dev., 8:1270-1284. For Wetern blot analysis, cellular pellets were lysed in ice-cold RIPA buffer (50 mM Tris, pH 7.5/150 mM NaCl/1% Nonidet P-40/0.5% sodium deoxycholate/0.1% SDS) containing Complete Mini protease inhibitor pellet (Roche) and 1 mM PMSF. Lysates were electrophoresed on SDS/PAGE gels and transferred to nitrocellulose membrane (Amersham Pharmacia Biotech). Membranes were stained with antibodies against ENH, Id2 (Santa Cruz Biotechnology), and α-tubulin (Sigma), and blots were developed by using ECLWestem Blotting Detection System (Amersham Pharmacia Biotech). The anti-ENH antibody is a rabbit polyclonal that was produced in collaboration with Zymed against a peptide that is fully conserved in the mouse sequence (KQQNGPPRKHI (SEQ ID NO:1)). Coimmunoprecipitation of Id2 and ENH from cells transfected with pcDNA.3-Id2 and p3XFlag-ENH was performed as described (lavarone, A. et al., (2004), Nature, 432:1040-1045).
# To determine whether Id2 binds ENH in vivo, coimmunoprecipitation experiments were performed after transfecting Id2 and Flag-tagged ENH in Cos-1. Anti-Id2 antibodies precipitated full-length Flag-ENH but not Flag-ENHδLIM (FIG. 2C). […]
# GST-Id1 = target: T2, GST-Id1; test: GST pull-down assay with GST-Id1; format: binding; conditions: in vitro-translated 35S-labeled ENH (FIG. 2B Right)
# Method: as §1
# Given the high homology among the HLH domains of the three Id proteins, it was asked whether Id1 and Id3 could also bind ENH in this assay. Indeed, both GST-Id1 and GST-Id3 bound to full-length ENH (FIG. 2B Right).
# SK-N-SH cells = test: BrdU incorporation study; format: cell-based, human; conditions: BrdU 6 h and 14 h
# Method: BrdU Incorporation Study: SK-N-SH cells were plated in Lab-Tek Chamber Slides (Nalge Nunc Intl.). Cells were transfected with plasmids expressing the empty vector, Id2, ENH, or both and an EGFP expression vector to identify transfected cells. After 24 h, cells were labeled with 10 μM BrdU for 6 h and 14 h, fixed, and stained with anti-BrdU antibody (Roche) for 1 h at room temperature. Secondary antibody was donkey anti-mouse, Cy3-conjugated (Jackson hnmunoResearch). Nuclei were counterstained with DAPI. Cells were examined on an Olympus epifluorescence microscope. BrdU-positive cells were scored by counting at least 500 GFP-positive cells in three independent experiments.
# (§2) A well known function of Id2 is the ability to enhance cell proliferation by promoting the transition from G1 to S phase of the cell cycle. Therefore, it was asked whether ENH inhibited cell proliferation and opposed Id2-mediated entry into S phase. […] Next SK-N-SH was transfected with ENH and Id2 in the presence of a GFP expression plasmid and measured the rate of DNA synthesis by incorporation of BrdU of the successfully transfected, GFP-positive cells.
# [2] = system: IMR-32 neuroblastoma cell line; test: Colony-forming assay; format: cell-based, human; conditions: transfected with pcDNA3-ENH, G418 selection 14 days
# Description: (§3) Cell Culture, Colony-Forming Assay, and Transfection: Neuroblastoma cell lines SK-N-SH, IMR-32, and LAN-1, the glioma cell lines SF188, and COS-1 cells were maintained in 10% FBS (Sigma) in DMEM (Cambrex). For colony-forming assay cells were transfected with pcDNA3-ENH or vector control. Cells were selected in G418 for 14 days, and colonies were scored in triplicate cultures. Cells were transfected by using Lipofectamine 2000 according to the manufacturer's instructions.
# as §2
# [3] = system: SK-N-SH neuroblastoma cell line; test: Colony-forming assay; format: cell-based, human; conditions: transfected with pcDNA3-ENH, G418 selection 14 days
# Description: as §3, §2
# SF188 glioma cell line = test: Colony-forming assay; format: cell-based, human; conditions: transfected with pcDNA3-ENH, G418 selection 14 days
# Description: as §3, §2
molecule,measurement,setting,value
B1,subcellular localization of endogenous Id2,[1],translocation of Id2 to the cytoplasm
same,precipitation by anti-Id2 antibodies,Id2; Western blot for Flag (FIG. 2C),precipitated
same,Id2 in Flag immunoprecipitates,Id2; Western blot for Id2 (FIG. 2D),contained Id2
same,binding of GST-Id1 to ENH,GST-Id1,bound
same,Id2-mediated stimulation of DNA synthesis,SK-N-SH cells; ENH and Id2 cotransfected,abrogated
same,S phase entry (BrdU incorporation of GFP-positive cells),SK-N-SH cells; ectopic ENH,strongly inhibited
same,colony formation,[2],markedly inhibited
same,colony formation,[3],markedly inhibited
same,colony formation,SF188 glioma cell line,markedly inhibited
